From patent publication US20210139608

Test system: T1, MMP2-cleavable peptide linker CGPLGVRGG within the MAP-Ab conjugate (imuGlue)
T1 sequence: CGPLGVRGG

Substance: MMP2 (matrix metalloproteinase-2)
- cumulative Ab release profile from MAP-Ab in the presence of MMP2: the imuGlue may release 75% of Ab sprayed for 24 hours in the presence of MMP2
- emission spectrum of MAP-Ab with or without MMP2: when MMP2 treatment was carried out, a blue shift was observed in the MAP-Ab emission spectrum
